This series is described as follows: protein stability index of a GFP-peptide fusion (GPS, HEK-293T) (PSI 1-6); higher = more stable.
The mark [1] stands for this setting: treatment: DMSO, c terminus: a fixed tail appended.
Where [2] appears, read: treatment: MLN4924 1 uM, 8 h, c terminus: a fixed tail appended.

± gives the standard deviation.
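Further: 24-mer peptide tiles fused after GFP, lentivirally expressed, FACS-sorted into six equal bins by GFP/DsRed ratio, decoded by Illumina sequencing, PSI is the read-weighted mean bin number.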

In the case of LSSIKRDTNSIAKAIKARGEVIHC [STX11], the protein stability index was determined as 3.22 ± 0.19 under setting [1] and 3.32 ± 0.2 under setting [2].

As to LTMAATFDDCLYALCVVDTIKRSS [GFOD1], the protein stability index stood at 2.54 ± 0.72 under setting [1] and 2.68 ± 0.57 under setting [2]. The like results for LVELLQPFKQVAEMLSASRYPTIS [ZBED1] were, in that order, 2.65 ± 0.66 and 2.29 ± 0.57. Turning to LVFEHVDQDLRTYLDKAPPPGLPA [CDK4], the protein stability index reads like this: under setting [1], 2.7 ± 0.36; under setting [2], 2.88 ± 0.34. On the same counts, the results for LWPTPGHLSPLVVHRQLSHLYAEP [ESR2] are 2.38 ± 0.24 and 2.54 ± 0.3.

On to LYLQLAICSSLQNLEKTIFCLQKL [C8orf76], for which the protein stability index was found to be 3.12 ± 0.69 under setting [1] and 3.2 ± 0.099 under setting [2].

As for MAEEQGRERDSVPKPSVLFLHPDL [ALG2], the protein stability index runs as follows: under setting [1], 4.36 ± 0.15; under setting [2], 4.5 ± 0.32. On the same counts, the results for MAHVDFRPPAYSPAQRSHTYTHGL are 2.8 ± 0.25 and 2.88 ± 0.32. With MASDTPESLMALCTDFCLRNLDGT [ZER1], the protein stability index is, setting by setting: under setting [1], 3.88 ± 0.14; under setting [2], 3.43 ± 0.41. On the same counts, the results for MATSRYEPVAEIGVGAYGTVYKAR [CDK4] are 3.2 ± 0.094 and 3.2 ± 0.24.

Turning to MCKADLSRNFIERNHMENGGDHRY [TRIM29], the protein stability index under setting [1] was 3.41 ± 0.25 and the protein stability index under setting [2] stood at 3.33 ± 0.26.

Regarding MDLSERQEVSSVRSLSSTGSLPSH [DLC1], the protein stability index reads like this: under setting [1], 4.61 ± 0.25; under setting [2], 4.47 ± 0.29. The like results for MDPPNPEEVKTPEEEMRSHYVAQT [GAGE1] were, in that order, 5.44 ± 0.087 and 5.4 ± 0.2. On the same counts, the results for MEDSFLQSFGRLSLQPQQQQQRQR [N4BP2L1] are 4.69 ± 0.3 and 4.63 ± 0.25. On the same counts, the results for MENIGAIQVLPKLSSSIIHEIDSI [KCNAB2] are 3.53 ± 0.34 and 3.51 ± 0.29. On to MEVAMVSAESSGCNSHMPYGYAAQ [KCNA4], for which the protein stability index under setting [1] was 2.95 ± 0.15 and the protein stability index under setting [2] amounted to 3.32 ± 0.5. The like results for MFFTCGPNEAMVVSGFCRSPPVMV [FLOT1] were, in that order, 2.93 ± 0.52 and 2.9 ± 0.74.

As to MFIPETKGCSLEQISMELAKVNYV [SLC2A12], the protein stability index runs as follows: under setting [1], 2.33 ± 0.62; under setting [2], 2.39 ± 0.31.

As to MGCTLSAEDKAAVERSKMIDRNLR [GNAI1], the protein stability index reads like this: under setting [1], 4.64 ± 0.32; under setting [2], 4.54 ± 0.1. Take MGHCCCKPYNCLQCLDKTNESALV [MTUS2]: the protein stability index by setting is: under setting [1], 3.28 ± 0.3; under setting [2], 3.4 ± 0.34. The like results for MKKAKEQLKIRKSNQIPTEVRSKA [FUNDC2] were, in that order, 4.59 ± 0.34 and 4.76 ± 0.45. On the same counts, the results for MLSWILRINLVAAIFSAPAFPAAV [PSD2] are 3.23 ± 0.19 and 2.89 ± 0.39. The like results for MMGLAQIYKKYALQSAAGKDAAKQ [PDS5B] were, in that order, 2.8 ± 0.27 and 3.23 ± 0.1. With MNGGMSLVAFVLLNECVGTAYWAL [SLC22A15], the protein stability index was 3.91 ± 2 under setting [1] and 3.13 ± 0.38 under setting [2].

For MNHYKKTTLEIHNTEERQKRQVTH [PTPN9], the protein stability index runs as follows: under setting [1], 4.52 ± 0.06; under setting [2], 4.49 ± 0.36. Consider MPALEGAPHTPPLPRRPRKGSSEL [RNF208], for which the protein stability index under setting [1] came to 5.11 ± 0.27 and the protein stability index under setting [2] worked out at 5.21 ± 0.22. On the same counts, the results for MPQYILREFKVTDARDGQSRTVRQ [PTPRD] are 3.75 ± 0.18 and 4.18 ± 0.27. On the same counts, the results for MPSPTDVVLPGAVSLRYSGATAAS [ADAMTS4] are 4.16 ± 0.3 and 4.25 ± 0.32. Regarding MPTQEVQELPIPSKLLEFLSYRI [WSB1], the protein stability index runs as follows: (treatment: DMSO, c terminus: native) 2.82 ± 0.2; (treatment: MLN4924 1 uM, 8 h, c terminus: native) 3.05 ± 0.12. Sequence MQVLGPEDLQSIIYKLEEHEEFFP [CEP70] had a protein stability index under setting [1] of 2.99 ± 0.53 and a protein stability index under setting [2] of 3.41 ± 0.39.

MREMFFEDHIDDAKYCGHLYGLGS [CNOT7]: the protein stability index was 2.68 ± 0.093 under setting [1] and 2.44 ± 0.28 under setting [2]. For MRGVAEVKEPCSLPMLSVDMENKE [SAMD13], the protein stability index worked out at 5.32 ± 0.18 under setting [1] and 5.53 ± 0.21 under setting [2]. MRTTNLDNRCKLFDSPSLCSSSTR [CDC25A] returned a protein stability index under setting [1] of 3.21 ± 0.4 and a protein stability index under setting [2] of 3.18 ± 0.24. On the same counts, the results for MSALGSPVRAYDFLLKFLLVGDSD [RAB40B] are 2.42 ± 0.38 and 2.13 ± 0.32. The like results for MSLHGASGGHERSRDRRRSSDRSR [BTBD10] were, in that order, 5.05 ± 0.16 and 5.19 ± 0.22. In turn, MSPESYLGSPQHSPSTRGSPNRSL [ATF4] yielded a protein stability index under setting [1] of 4.64 ± 0.19 and a protein stability index under setting [2] of 4.91 ± 0.3. On the same counts, the results for MSQPRTPEQALDTPGDCPPGRRDE [TMEM175] are 5.38 ± 0.17 and 5.58 ± 0.19. On the same counts, the results for MVLAPVFGYLGDRYNRKYLMCGGI [SPNS1] are 2.61 ± 0.058 and 2.5 ± 0.84. On the same counts, the results for MVRFKHRYLLCELVSDDPRCRLSL [POP5] are 2.56 ± 0.38 and 2.55 ± 0.58.

MYDLPKKEDALLYQSKGYNDDYYE [EMD] returned a protein stability index under setting [1] of 4.27 ± 0.15 and a protein stability index under setting [2] of 4.25 ± 0.22. On the same counts, the results for MYEEEINETRRKHETRLVEVDSGR [LMNB1] are 5.04 ± 0.44 and 5.06 ± 0.099. NAGLSHTEYQIVTDPGDVPAFLKW [SLC2A12] returned a protein stability index under setting [1] of 2.92 ± 0.3 and a protein stability index under setting [2] of 3.1 ± 0.34. On the same counts, the results for NAMTCEGCKGFFRRSMKRKALFTC [VDR] are 2.38 ± 0.36 and 2.22 ± 0.6. On the same counts, the results for NCNWFCEGSFNGSEKETMQFLNDR [KRT33B] are 3.54 ± 0.35 and 3.61 ± 0.19. On the same counts, the results for NDFWRIEVVNRKFGNRIKVLRSRI [POMT2] are 2.19 ± 0.6 and 2.17 ± 0.48. Consider NEIIKKLQGDLKTLMGKLKLKNTV [SASS6], for which, under setting [2], the protein stability index amounted to 2.21 ± 0.35. With NGTMTIDWNEWRDYHLLHPVENIP [SLC25A25], the protein stability index by setting is: under setting [1], 3.18 ± 0.28; under setting [2], 3.07 ± 0.19. The like results for NHWVPACHSFNRAIHKKAKGTEAE [FBXO34] were, in that order, 4 ± 0.17 and 4.1 ± 0.12. NIADIEEKRGFTSHFVFVIEVKTK [NCF4]: the protein stability index under setting [1] was 2.47 ± 0.74 and the protein stability index under setting [2] was determined as 2.62 ± 0.44.

Regarding NKILVPLVLLRQMLLELTRRGQEP [BCL2L13], the protein stability index is, setting by setting: under setting [1], 2.64 ± 1.6; under setting [2], 2.92 ± 0.92. For NLEKTIFCLQKLISLHPFNPWNWG [C8orf76], the protein stability index is, setting by setting: under setting [1], 2.53 ± 0.77; under setting [2], 2.59 ± 0.5. Take NLQPPASLQTGNHSNGPTDLSMKG [NOL4L]: the protein stability index is 4.66 ± 0.25 under setting [1] and 4.61 ± 0.21 under setting [2]. On the same counts, the results for NLRATDVRLMRQLLVINESIESIK [LURAP1L] are 2.41 ± 0.16 and 2.58 ± 0.35. On the same counts, the results for NMKNGANDVKHHRWFRSVDWEAVP [PRKX] are 2.95 ± 0.33 and 3.08 ± 0.33. The like results for NPSQKTGQALLTHLYQSSARRYAG [ELAVL3] were, in that order, 3.58 ± 0.23 and 3.4 ± 0.36. As to NQYLYFLFAPTLIYRDSYPRNPTV [SOAT1], the protein stability index was found to be 3.26 ± 0.69 under setting [1] and 2.57 ± 0.62 under setting [2]. The like results for NRRSSRETREYAPPSRGHGYRDYG [RBMY1A1] were, in that order, 4.27 ± 0.24 and 4.09 ± 0.23. The like results for NSFGLRFGKREAAPGNHGRSAGRG [KISS1] were, in that order, 4.44 ± 0.4 and 4.4 ± 0.46.

Take NTLRSQLGDRLNVEVDTAPTVDLN [KRT34]: the protein stability index reads like this: under setting [1], 4.84 ± 0.18; under setting [2], 4.84 ± 0.15. The like results for NTTCVGRYPVCKFPSLQVTAILIE [FEM1C] were, in that order, 2.67 ± 0.48 and 2.23 ± 0.21. On the same counts, the results for NTVKVQVLYPDGQAQMIHPKPADF [INTS4] are 3.05 ± 0.48 and 3.08 ± 0.27. The like results for NYLIFSQKPEFQDLSVEERSFVEK [RHOBTB3] were, in that order, 3.61 ± 0.16 and 3.69 ± 0.27. Consider NYSQDAADACDIDEIEEVPTTSHR [NETO1], for which the protein stability index by setting is: under setting [1], 5.55 ± 0.18; under setting [2], 5.49 ± 0.17.

As to PAADPPRYTFAPSVSLNKTARPFG [PDLIM7], the protein stability index runs as follows: under setting [1], 3.54 ± 0.27; under setting [2], 3.64 ± 0.35. The like results for PADFSLGSLPGPGQTSGAREPPQA [VENTX] were, in that order, 5.12 ± 0.2 and 5.16 ± 0.24. The like results for PAGTPPPTARHFQEHPRQQLATSS [MOSPD3] were, in that order, 4.74 ± 0.27 and 4.83 ± 0.17. On the same counts, the results for PALLEATGGAAGAGGAGRGEDEEN [KCTD13] are 5.62 ± 0.24 and 5.64 ± 0.24.

PCYDVRYAPSCAKCKKKITGEIMH [PDLIM7]: the protein stability index came out at 3.04 ± 0.39 under setting [1] and 2.97 ± 0.38 under setting [2]. As to PDEAARARLLQEGGGGVAAVVVLD [DUSP5], the protein stability index under setting [1] amounted to 4.3 ± 0.46 and the protein stability index under setting [2] was determined as 4.57 ± 0.13. On the same counts, the results for PDSMFLAMLAVVSCASIGSGEPPT [CDK11A] are 2.74 ± 0.15 and 3.222 ± 0.003. PDTMEKLRTHIDAIILALPEDLQG [DENND6A]: the protein stability index runs as follows: under setting [1], 3.02 ± 0.5; under setting [2], 3.02 ± 0.23. On the same counts, the results for PEEKIWEELSVLEVFEGREDSIFG [MAGEA6] are 4.23 ± 0.29 and 4.17 ± 0.39.

(Values after the supplement of paper PMC10567573.)
